Article PMC11272584 (Nature Metabolism, 2024)

How the values were obtained:
GIPR W233* = biological target: T1, GIPR W233* (Homo sapiens, UniProt P48546); assay: cAMP accumulation; type: cell-based
T1 construct: host or cells: HEK293
T1 sequence (P48546 22-232 limits assumed): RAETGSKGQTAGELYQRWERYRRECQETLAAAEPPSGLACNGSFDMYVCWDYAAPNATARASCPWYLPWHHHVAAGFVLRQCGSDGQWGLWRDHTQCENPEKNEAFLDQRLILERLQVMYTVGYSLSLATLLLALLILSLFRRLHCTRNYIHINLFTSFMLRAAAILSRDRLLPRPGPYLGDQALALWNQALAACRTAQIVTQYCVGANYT
Protocol: (§1) HEK293 (CRL-1573, American Type Culture Collection) and β-arrestin 1/2 knockout cells, generated from HEK293A[48], were used for cAMP measurement, homologues competition binding and β-arrestin 2 recruitment. […] Both cell lines were cultured at 5% CO2 at 37 °C in Roswell Park Memorial Institute GlutaMAX-I supplemented with 10% fetal bovine serum, 180 units ml^−1 penicillin, and 45 g ml^−1 streptomycin. For the cAMP and binding experiments, cells were transfected with the calcium phosphate precipitation method[49].
(§2) cAMP production was measured with the DiscoverX Hithunter cAMP assay according to the manufacturer’s protocol (DiscoverX). […] On the day of the assay, the cells were washed twice with HEPES-buffered saline (HBS) and incubated with HBS and 1 mM 3-isobutyl-1-methylxanthine for 30 min at 37 °C. […] After the incubation, the assay medium was removed from the plate and the cells were washed with 30 µl PBS and treated with 40 µl enzyme donor–lysis buffer–chemiluminescent reagents and 10 µl cAMP antibodies for 60 min before 40 µl enzyme acceptor solution added. After a 3-h incubation on a shaking table in the dark, the cAMP accumulation was measured based on luminescence with a Perkin Elmer EnVision 2104 Multilabel Microplate Reader.

GIPR variants (groups) [1] = assay: cAMP accumulation; type: cell-based, human; details: for In vitro groups (cAMP): cAMP part of the in vitro group; for percentage_camp: cAMP production compared with WT; for Beta, cAMP: in vitro cAMP production per GIPR variant
GIPR variants (groups) [2] = assay: β-arrestin 2 recruitment (BRET); details: for In vitro groups (β-arrestin): arr part of the in vitro group; for Beta, Barr: in vitro β-arrestin recruitment per GIPR variant;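 on all read-outs here: BRET readout of β-arrestin 2 recruitment in transiently transfected HEK293 cells expressing WT GIPR or a GIPR variant plus GPCR kinase 2, Rluc8 donor and citrine acceptor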
Protocol: Both cell lines were cultured at 5% CO2 at 37 °C in Roswell Park Memorial Institute GlutaMAX-I supplemented with 10% fetal bovine serum, 180 units ml^−1 penicillin, and 45 g ml^−1 streptomycin. […] The polyethyleneimine (PEI) transfection method was used for the β-arrestin 2 recruitment assays[50], endosomal signalling and basal receptor localization assays, while the lipofectamine transfection method was used for the internalization assay.
Measurement of β-arrestin 2 recruitment was performed with a BRET assay. Two days before the assay, the HEK293 cells were transiently transfected with either WT GIPR or the GIPR variants together with the donor Rluc8-Arrestin-3-Sp1, the acceptor mem-linker-citrine-SH3 and the GPCR kinase 2 to facilitate β-arrestin 2 recruitment. On assay day, the cells were washed with PBS and resuspended in PBS supplemented with 5 mmol l^−1 glucose. Subsequently, 85 µl of the cell suspension was transferred to a white 96-well plate and 10 µl of 50 µM coelenterazine-h was added.

GIPR I221M = biological target: T2, GIPR I221M (Homo sapiens, UniProt P48546, I221M); assay: cAMP accumulation; type: cell-based
T2 construct: host or cells: HEK293
T2 sequence (P48546 22-466 I221M): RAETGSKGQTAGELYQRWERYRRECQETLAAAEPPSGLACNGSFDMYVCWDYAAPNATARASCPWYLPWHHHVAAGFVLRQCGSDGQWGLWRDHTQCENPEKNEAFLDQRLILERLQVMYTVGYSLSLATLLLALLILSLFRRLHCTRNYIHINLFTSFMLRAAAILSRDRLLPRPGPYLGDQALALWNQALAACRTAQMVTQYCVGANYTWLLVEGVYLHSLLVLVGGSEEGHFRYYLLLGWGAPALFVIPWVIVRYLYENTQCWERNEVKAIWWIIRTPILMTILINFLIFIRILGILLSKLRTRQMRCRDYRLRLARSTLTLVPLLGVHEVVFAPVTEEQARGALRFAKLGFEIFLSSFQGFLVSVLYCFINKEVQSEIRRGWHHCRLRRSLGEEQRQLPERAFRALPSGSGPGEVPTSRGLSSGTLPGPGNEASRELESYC
Protocol: as §1, §2

GIPR L261H = biological target: T3, GIPR L261H (Homo sapiens, UniProt P48546, L261H); assay: cAMP accumulation; type: cell-based
T3 construct: host or cells: HEK293
T3 sequence (P48546 22-466 L261H): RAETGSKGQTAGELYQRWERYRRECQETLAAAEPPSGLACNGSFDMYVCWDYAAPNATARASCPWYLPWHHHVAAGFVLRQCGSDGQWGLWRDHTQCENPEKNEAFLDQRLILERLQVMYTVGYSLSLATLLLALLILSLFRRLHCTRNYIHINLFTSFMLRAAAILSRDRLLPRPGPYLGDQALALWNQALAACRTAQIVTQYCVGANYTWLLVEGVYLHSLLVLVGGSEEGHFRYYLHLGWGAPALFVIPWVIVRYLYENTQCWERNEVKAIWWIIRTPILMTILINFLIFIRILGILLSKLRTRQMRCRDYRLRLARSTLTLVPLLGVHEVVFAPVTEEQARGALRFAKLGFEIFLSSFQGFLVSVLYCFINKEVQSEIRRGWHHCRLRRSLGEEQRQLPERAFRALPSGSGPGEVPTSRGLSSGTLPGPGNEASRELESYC
Protocol: as §1, §2

GIPR A294V = biological target: T4, GIPR A294V (Homo sapiens, UniProt P48546, A294V); assay: cAMP accumulation; type: cell-based
T4 construct: host or cells: HEK293
T4 sequence (P48546 22-466 A294V): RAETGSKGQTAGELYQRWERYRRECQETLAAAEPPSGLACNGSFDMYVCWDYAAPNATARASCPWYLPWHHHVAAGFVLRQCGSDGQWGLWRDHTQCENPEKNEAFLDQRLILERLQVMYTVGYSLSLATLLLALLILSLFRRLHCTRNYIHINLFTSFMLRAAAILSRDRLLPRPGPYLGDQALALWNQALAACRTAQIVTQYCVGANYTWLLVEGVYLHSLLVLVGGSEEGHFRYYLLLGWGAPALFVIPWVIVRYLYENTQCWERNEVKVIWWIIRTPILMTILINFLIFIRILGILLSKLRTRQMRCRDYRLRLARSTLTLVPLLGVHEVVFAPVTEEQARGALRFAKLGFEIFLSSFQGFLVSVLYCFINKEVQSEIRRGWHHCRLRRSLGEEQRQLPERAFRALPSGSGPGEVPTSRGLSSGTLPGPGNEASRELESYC
Protocol: as §1
(§3) cAMP production was measured with the DiscoverX Hithunter cAMP assay according to the manufacturer’s protocol (DiscoverX). […] On the day of the assay, the cells were washed twice with HEPES-buffered saline (HBS) and incubated with HBS and 1 mM 3-isobutyl-1-methylxanthine for 30 min at 37 °C. […] After the incubation, the assay medium was removed from the plate and the cells were washed with 30 µl PBS and treated with 40 µl enzyme donor–lysis buffer–chemiluminescent reagents and 10 µl cAMP antibodies for 60 min before 40 µl enzyme acceptor solution added. After a 3-h incubation on a shaking table in the dark, the cAMP accumulation was measured based on luminescence with a Perkin Elmer EnVision 2104 Multilabel Microplate Reader. […]

GIPR E291K = biological target: T5, GIPR E291K (Homo sapiens, UniProt P48546, E291K); assay: cAMP accumulation; type: cell-based
T5 construct: host or cells: HEK293
T5 sequence (P48546 22-466 E291K): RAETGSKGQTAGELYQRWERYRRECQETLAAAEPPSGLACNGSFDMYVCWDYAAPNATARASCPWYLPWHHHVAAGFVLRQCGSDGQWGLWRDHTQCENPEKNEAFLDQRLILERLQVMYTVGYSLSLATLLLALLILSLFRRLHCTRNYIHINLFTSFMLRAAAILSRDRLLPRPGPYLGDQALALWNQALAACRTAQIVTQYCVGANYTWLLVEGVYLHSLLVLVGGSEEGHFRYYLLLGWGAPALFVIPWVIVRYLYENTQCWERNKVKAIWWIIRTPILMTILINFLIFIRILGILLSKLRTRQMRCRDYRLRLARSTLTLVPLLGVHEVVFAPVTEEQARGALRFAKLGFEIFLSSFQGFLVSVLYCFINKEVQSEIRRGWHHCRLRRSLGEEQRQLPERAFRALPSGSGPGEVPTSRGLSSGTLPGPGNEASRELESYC
Protocol: as §1, §3

GIPR E288G = biological target: T6, GIPR E288G (Homo sapiens, UniProt P48546, E288G); assay: cAMP accumulation; type: cell-based
T6 construct: host or cells: HEK293
T6 sequence (P48546 22-466 E288G): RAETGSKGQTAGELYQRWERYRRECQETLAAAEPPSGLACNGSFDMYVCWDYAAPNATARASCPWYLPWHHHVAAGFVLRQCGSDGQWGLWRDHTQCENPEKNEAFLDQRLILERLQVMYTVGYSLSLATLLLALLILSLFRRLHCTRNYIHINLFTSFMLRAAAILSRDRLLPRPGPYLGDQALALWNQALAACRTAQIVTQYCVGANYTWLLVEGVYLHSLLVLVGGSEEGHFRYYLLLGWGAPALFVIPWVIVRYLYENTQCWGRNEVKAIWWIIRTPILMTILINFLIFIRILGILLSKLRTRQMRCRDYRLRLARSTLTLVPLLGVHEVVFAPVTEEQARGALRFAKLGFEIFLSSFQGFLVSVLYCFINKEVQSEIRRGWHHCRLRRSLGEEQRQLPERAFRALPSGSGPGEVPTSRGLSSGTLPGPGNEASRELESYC
Protocol: as §1, §2

| Molecule | Efficacy at 100pmol (cAMP) (GIPR W233*) | In vitro groups (cAMP) (GIPR variants (groups) [1]) | percentage_camp (GIPR variants (groups) [1]) [% cAMP] | In vitro groups (β-arrestin) (GIPR variants (groups) [2]) | Efficacy at 100pmol (cAMP) (GIPR I221M) | Beta, cAMP (GIPR variants (groups) [1]) | Beta, Barr (GIPR variants (groups) [2]) | Efficacy at 100pmol (cAMP) (GIPR L261H) | Efficacy at 100pmol (cAMP) (GIPR A294V) | Efficacy at 100pmol (cAMP) (GIPR E291K) | Efficacy at 100pmol (cAMP) (GIPR E288G) |
| --- | --- | --- | --- | --- | --- | --- | --- | --- | --- | --- | --- |
| W233* (protein) RAETGSKGQTAGELYQRWERYRRECQETLAAAEPPSGLACNGSFDMYVCWDYAAPNATARASCPWYLPWHHHVAAGFVLRQCGSDGQWGLWRDHTQCENPEKNEAFLDQRLILERLQVMYTVGYSLSLATLLLALLILSLFRRLHCTRNYIHINLFTSFMLRAAAILSRDRLLPRPGPYLGDQALALWNQALAACRTAQIVTQYCVGANYT | 0.06458 | LoF_camp | <50 | LoF_arr | – | – | – | – | – | – | – |
| I221M (protein) RAETGSKGQTAGELYQRWERYRRECQETLAAAEPPSGLACNGSFDMYVCWDYAAPNATARASCPWYLPWHHHVAAGFVLRQCGSDGQWGLWRDHTQCENPEKNEAFLDQRLILERLQVMYTVGYSLSLATLLLALLILSLFRRLHCTRNYIHINLFTSFMLRAAAILSRDRLLPRPGPYLGDQALALWNQALAACRTAQMVTQYCVGANYTWLLVEGVYLHSLLVLVGGSEEGHFRYYLLLGWGAPALFVIPWVIVRYLYENTQCWERNEVKAIWWIIRTPILMTILINFLIFIRILGILLSKLRTRQMRCRDYRLRLARSTLTLVPLLGVHEVVFAPVTEEQARGALRFAKLGFEIFLSSFQGFLVSVLYCFINKEVQSEIRRGWHHCRLRRSLGEEQRQLPERAFRALPSGSGPGEVPTSRGLSSGTLPGPGNEASRELESYC | – | WT-like_camp | >50 | LoF_arr | 0.8221 | 0.8221 | 0.1962 | – | – | – | – |
| L261H (protein) RAETGSKGQTAGELYQRWERYRRECQETLAAAEPPSGLACNGSFDMYVCWDYAAPNATARASCPWYLPWHHHVAAGFVLRQCGSDGQWGLWRDHTQCENPEKNEAFLDQRLILERLQVMYTVGYSLSLATLLLALLILSLFRRLHCTRNYIHINLFTSFMLRAAAILSRDRLLPRPGPYLGDQALALWNQALAACRTAQIVTQYCVGANYTWLLVEGVYLHSLLVLVGGSEEGHFRYYLHLGWGAPALFVIPWVIVRYLYENTQCWERNEVKAIWWIIRTPILMTILINFLIFIRILGILLSKLRTRQMRCRDYRLRLARSTLTLVPLLGVHEVVFAPVTEEQARGALRFAKLGFEIFLSSFQGFLVSVLYCFINKEVQSEIRRGWHHCRLRRSLGEEQRQLPERAFRALPSGSGPGEVPTSRGLSSGTLPGPGNEASRELESYC | – | LoF_camp | <50 | LoF_arr | – | 0.4533 | 0 | 0.4533 | – | – | – |
| A294V (protein) RAETGSKGQTAGELYQRWERYRRECQETLAAAEPPSGLACNGSFDMYVCWDYAAPNATARASCPWYLPWHHHVAAGFVLRQCGSDGQWGLWRDHTQCENPEKNEAFLDQRLILERLQVMYTVGYSLSLATLLLALLILSLFRRLHCTRNYIHINLFTSFMLRAAAILSRDRLLPRPGPYLGDQALALWNQALAACRTAQIVTQYCVGANYTWLLVEGVYLHSLLVLVGGSEEGHFRYYLLLGWGAPALFVIPWVIVRYLYENTQCWERNEVKVIWWIIRTPILMTILINFLIFIRILGILLSKLRTRQMRCRDYRLRLARSTLTLVPLLGVHEVVFAPVTEEQARGALRFAKLGFEIFLSSFQGFLVSVLYCFINKEVQSEIRRGWHHCRLRRSLGEEQRQLPERAFRALPSGSGPGEVPTSRGLSSGTLPGPGNEASRELESYC | – | WT-like_camp | >50 | WT-like_arr | – | 0.6171 | 0.6328 | – | 0.6171 | – | – |
| E291K (protein) RAETGSKGQTAGELYQRWERYRRECQETLAAAEPPSGLACNGSFDMYVCWDYAAPNATARASCPWYLPWHHHVAAGFVLRQCGSDGQWGLWRDHTQCENPEKNEAFLDQRLILERLQVMYTVGYSLSLATLLLALLILSLFRRLHCTRNYIHINLFTSFMLRAAAILSRDRLLPRPGPYLGDQALALWNQALAACRTAQIVTQYCVGANYTWLLVEGVYLHSLLVLVGGSEEGHFRYYLLLGWGAPALFVIPWVIVRYLYENTQCWERNKVKAIWWIIRTPILMTILINFLIFIRILGILLSKLRTRQMRCRDYRLRLARSTLTLVPLLGVHEVVFAPVTEEQARGALRFAKLGFEIFLSSFQGFLVSVLYCFINKEVQSEIRRGWHHCRLRRSLGEEQRQLPERAFRALPSGSGPGEVPTSRGLSSGTLPGPGNEASRELESYC | – | LoF_camp | <50 | LoF_arr | – | 0.3479 | 0.1982 | – | – | 0.3479 | – |
| E288G (protein) RAETGSKGQTAGELYQRWERYRRECQETLAAAEPPSGLACNGSFDMYVCWDYAAPNATARASCPWYLPWHHHVAAGFVLRQCGSDGQWGLWRDHTQCENPEKNEAFLDQRLILERLQVMYTVGYSLSLATLLLALLILSLFRRLHCTRNYIHINLFTSFMLRAAAILSRDRLLPRPGPYLGDQALALWNQALAACRTAQIVTQYCVGANYTWLLVEGVYLHSLLVLVGGSEEGHFRYYLLLGWGAPALFVIPWVIVRYLYENTQCWGRNEVKAIWWIIRTPILMTILINFLIFIRILGILLSKLRTRQMRCRDYRLRLARSTLTLVPLLGVHEVVFAPVTEEQARGALRFAKLGFEIFLSSFQGFLVSVLYCFINKEVQSEIRRGWHHCRLRRSLGEEQRQLPERAFRALPSGSGPGEVPTSRGLSSGTLPGPGNEASRELESYC | – | LoF_camp | <50 | LoF_arr | – | 0.04101 | 0.09099 | – | – | – | 0.04101 |
